In patent publication US20140206607A1 (INDIANA UNIVERSITY RESEARCH AND TECHNOLOGY, published 2014):
Numbered stars: 1 amine (or outer) side, 2 acyl side, 3 side chain; on linkers, the order of the positions; unused ones are H or OH. Square brackets hold non-standard residues; d marks the D form. Side chains are listed from the residue outwards. Ends that are not written are not given here. * marks the point of attachment. γGlu = O=C(O)[C@H](CCC(=O)[*:2])N[*:1]; Palmitoyl = CCCCCCCCCCCCCCCC(=O)*; Orn = NCCC[C@H](N)C(=O)O; Aib = CC(C)(N)C(=O)O

T1: GIP receptor (UniProt P48546 22-466)
T1 sequence (looked up): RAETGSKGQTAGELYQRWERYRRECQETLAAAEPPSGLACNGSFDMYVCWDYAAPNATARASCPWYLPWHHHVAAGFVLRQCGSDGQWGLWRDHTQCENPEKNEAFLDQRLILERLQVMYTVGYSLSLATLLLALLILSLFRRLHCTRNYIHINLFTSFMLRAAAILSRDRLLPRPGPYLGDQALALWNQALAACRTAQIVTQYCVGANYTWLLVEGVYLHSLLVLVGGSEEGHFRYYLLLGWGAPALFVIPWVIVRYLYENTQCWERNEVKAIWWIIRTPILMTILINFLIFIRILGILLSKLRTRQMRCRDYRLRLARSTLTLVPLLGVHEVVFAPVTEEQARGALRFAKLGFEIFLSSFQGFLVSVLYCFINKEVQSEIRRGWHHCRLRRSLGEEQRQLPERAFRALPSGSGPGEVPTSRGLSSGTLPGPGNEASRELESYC


Legend:
Experiment in all cases: cell-based or functional assay
glucagon receptor = glucagon receptor (UniProt P47871 26-477, limits assumed)
GLP-1 receptor = GLP-1 receptor (UniProt P43220 24-463, limits assumed)
GIP receptor = target: T1, GIP receptor

glucagon receptor, sequence (P47871 26-477 limits assumed): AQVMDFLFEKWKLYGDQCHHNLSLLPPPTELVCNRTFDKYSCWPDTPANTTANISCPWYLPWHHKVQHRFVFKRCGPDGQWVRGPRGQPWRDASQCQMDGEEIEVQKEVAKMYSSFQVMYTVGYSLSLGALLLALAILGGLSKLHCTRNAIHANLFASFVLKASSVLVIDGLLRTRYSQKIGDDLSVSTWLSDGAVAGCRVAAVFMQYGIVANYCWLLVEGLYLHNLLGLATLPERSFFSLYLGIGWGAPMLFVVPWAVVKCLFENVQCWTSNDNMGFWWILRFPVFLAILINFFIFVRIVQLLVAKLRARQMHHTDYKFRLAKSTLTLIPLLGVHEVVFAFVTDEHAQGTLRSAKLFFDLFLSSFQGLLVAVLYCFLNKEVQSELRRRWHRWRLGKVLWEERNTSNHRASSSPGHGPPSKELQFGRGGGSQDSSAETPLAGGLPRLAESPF

Binder | EC50 (nM) at glucagon receptor (glucagon receptor) [nM] | EC50 (nM) at GLP-1 receptor (GLP-1 receptor) [nM] | EC50 (nM) at GIP receptor (GIP receptor) [nM]
H[Aib]QGTFTSDYSKYLDERRA[Aib]EFVC(40K‑TE PEG)WLLDGGPSSGAPPPS-NH2 [peptide of SEQ ID NO: 35] | 1.18 | 0.085 | 16.1
H[Aib]QGTFTSDK([γGlu-Palmitoyl])SKYLD[Aib]RAAQDFVQWLKDGRG-NH2 (N-terminus assumed; SMILES CCCCCCCCCCCCCCCC(=O)N[C@@H](CCC(=O)NCCCC[C@H](NC(=O)[C@H](CC(=O)O)NC(=O)[C@H](CO)NC(=O)[C@@H](NC(=O)[C@H](Cc1ccccc1)NC(=O)[C@@H](NC(=O)CNC(=O)[C@H](CCC(N)=O)NC(=O)C(C)(C)NC(=O)[C@@H](N)Cc1c[nH]cn1)[C@@H](C)O)[C@@H](C)O)C(=O)N[C@@H](CO)C(=O)N[C@@H](CCCCN)C(=O)N[C@@H](Cc1ccc(O)cc1)C(=O)N[C@@H](CC(C)C)C(=O)N[C@@H](CC(=O)O)C(=O)NC(C)(C)C(=O)N[C@@H](CCCNC(=N)N)C(=O)N[C@@H](C)C(=O)N[C@@H](C)C(=O)N[C@@H](CCC(N)=O)C(=O)N[C@@H](CC(=O)O)C(=O)N[C@@H](Cc1ccccc1)C(=O)N[C@H](C(=O)N[C@@H](CCC(N)=O)C(=O)N[C@@H](Cc1c[nH]c2ccccc12)C(=O)N[C@@H](CC(C)C)C(=O)N[C@@H](CCCCN)C(=O)N[C@@H](CC(=O)O)C(=O)NCC(=O)N[C@@H](CCCNC(=N)N)C(=O)NCC(N)=O)C(C)C)C(=O)O) [peptide of SEQ ID NO: 36] | 0.028 | 0.003 | 0.47
H[Aib]QGTFTSDK([γGlu-γGlu-Palmitoyl])SKYLD[Aib]RAAQDFVQWLM[Orn]T[Orn]E-OH (N-terminus assumed; SMILES CCCCCCCCCCCCCCCC(=O)N[C@@H](CCC(=O)N[C@@H](CCC(=O)NCCCC[C@H](NC(=O)[C@H](CC(=O)O)NC(=O)[C@H](CO)NC(=O)[C@@H](NC(=O)[C@H](Cc1ccccc1)NC(=O)[C@@H](NC(=O)CNC(=O)[C@H](CCC(N)=O)NC(=O)C(C)(C)NC(=O)[C@@H](N)Cc1c[nH]cn1)[C@@H](C)O)[C@@H](C)O)C(=O)N[C@@H](CO)C(=O)N[C@@H](CCCCN)C(=O)N[C@@H](Cc1ccc(O)cc1)C(=O)N[C@@H](CC(C)C)C(=O)N[C@@H](CC(=O)O)C(=O)NC(C)(C)C(=O)N[C@@H](CCCNC(=N)N)C(=O)N[C@@H](C)C(=O)N[C@@H](C)C(=O)N[C@@H](CCC(N)=O)C(=O)N[C@@H](CC(=O)O)C(=O)N[C@@H](Cc1ccccc1)C(=O)N[C@H](C(=O)N[C@@H](CCC(N)=O)C(=O)N[C@@H](Cc1c[nH]c2ccccc12)C(=O)N[C@@H](CC(C)C)C(=O)N[C@@H](CCSC)C(=O)N[C@@H](CCCN)C(=O)N[C@H](C(=O)N[C@@H](CCCN)C(=O)N[C@@H](CCC(=O)O)C(=O)O)[C@@H](C)O)C(C)C)C(=O)O)C(=O)O) [peptide of SEQ ID NO: 33] | 0.023 | 0.019 | 3.96
